Assays:
[1] = target: T1, cynomolgus monkey BCMA-Fc, Avitag (ACRO, Cat. BCA-C82F4) (cynomolgus monkey, UniProt A0A2K5UD97 1-53); assay: Biacore, antigen coupled to a CM5 chip, PR003178 injected at 6-0.1875 nM, 1:1 kinetic fit [E]
T1 construct: Bought reagent; amine-coupled to the CM5 chip; also called cynomolgus monkey BCMA recombinant protein; not shown: Fc and Avitag of the bought protein
Procedure: Human BCMA-Fc, Avitag recombinant protein (ACRO, Cat. BC7-H82F0), cynomolgus monkey BCMA-Fc, Avitag (ACRO, Cat. BCA-C82F4) were purchased from ACRO, human CD3e/g ECD-hFc recombinant protein (Lot.20190508002), cynomolgus monkey CD3e/g ECD-hFc recombinant protein and human (Lot.2018040001) were purchased from ChemPartner.
The flow rate was set as 10 μl/min and four antigens were coupled on four channels on two CMS: 1) the injection time was set as 300 s, and 50 mM of NHS and 200 mM of EDC were freshly mixed at 1:1 volume ratio and injected into four channels; 2) human BCMA-Fc, Avitag recombinant protein, cynomolgus monkey BCMA-FC, Avitag, human CD3e/g ECD-hFc recombinant protein and cynomolgus CD3e/g ECD-hFc recombinant protein were all diluted to 1 μg/ml with sodium acetate (Cat# BR-1003-50) (pH 4.5), and injected into channel 2, 3 and 4 of chip 1 and channel 2 of chip 2, respectively; 3) 1 M of ethanolamine (pH8.5) was injected for 300 s to block the remaining active carboxyl groups on the chips surface. After blockage, the instrument was continued to be equilibrated with 1 ×HBS- EP+buffer for two hours. The final coupling amounts of human BCMA-Fc, Avitag recombinant protein, cynomolgus monkey BCMA-Fc, Avitag, human CD3e/g ECD-hFc recombinant protein and cynomolgus monkey CD3e/g ECD-hFc recombinant protein were 120 RU, 70 RU, 200 RU and 290 RU, respectively.
A multi-cycle kinetic mode was set, and each cycle included the binding of PRO03178 as well as the regeneration of the chip. PRO03178 with two-fold gradient dilution was injected into four channels at a flow rate of 30 μl/min. A binding time of 180 s and a dissociation time of 400 s or 600s were set. Finally, 10 mM of glycine-hydrochloric acid (pH 1.5) (GE Life Sciences, Cat# BR-1003-54) was injected at the same flow rate for 60 s to regenerate the chip.

[2] = target: T2, human BCMA on cells (HEK293T/huBCMA; NCI-H929) (human, UniProt Q02223 1-184); assay: FACS on NCI-H929 cell line [B]
T2 construct: whole, on cells; also called human BCMA molecules on NCI-H929 cell line
T2 sequence (looked up): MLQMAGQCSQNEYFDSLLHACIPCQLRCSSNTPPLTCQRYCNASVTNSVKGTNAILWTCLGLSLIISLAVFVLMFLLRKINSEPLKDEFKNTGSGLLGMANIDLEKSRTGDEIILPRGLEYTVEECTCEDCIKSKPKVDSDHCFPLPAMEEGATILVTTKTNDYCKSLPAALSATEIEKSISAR
Procedure: To study the binding activity of the BCMA arm of the BCMA×CD3 bispecific antibody to human BCMA, NCI-H929 cell line with highly expressed BCMA was used for binding experiments with human BCMA at cellular level. Briefly, NCI-H929 cell suspensions were collected. The cell density was adjusted to 1×10⁶ cells/mL, and the cells were inoculated in 96 well V-bottom plates at 100 μL cells/well (Corning, Cat#: 3894), followed by the addition of test antibodies at 100 μL/well, which is gradient diluted at 3 folds of the concentration with 2 folds of the final concentration. Cells were incubated at 4° C. for 2 hours in the dark. Afterwards, cells were washed twice with 100 μL/well of pre-cooled PBS, centrifuged at 500 g for 5 min at 4° C., and followed by discarding the supernatant. 100 μL/well of fluorescent secondary antibody (Alexa Fluor 488-conjugated AffiniPure Goat Anti-Human IgG, Fcγ Fragment Specific, Jackson, Cat#:109-545-06, 1:500 dilution) was added and incubated at 4° C. for 1 hour in the dark. Cells were washed twice with 100 μL/well of pre-cooled PBS, centrifuged at 500 g, 4° C. for 5 min, and followed by discarding the supernatant. Finally, the cells were resuspended with 200 μL/well of pre-cooled PBS, and the fluorescence luminescence signal values were read by BD FACS CANTOII.

[3] = target: T2, human BCMA on cells (HEK293T/huBCMA; …); assay: FACS on HEK293T cell strain overexpressing human BCMA [C]
Description: To study the in vitro binding activity of the BCMA arm of the BCMA×CD3 bispecific antibody, HEK293T cell strain overexpressing human BCMA (HEK293T/huBCMA) and HEK293T cell strain overexpressing cynomolgus monkey BCMA (HEK293T/cynoBCMA) were used for antibody binding experiments at cellular level. Briefly, HEK293T/huBCMA cells and HEK293T/cynoBCMA cells were digested and resuspended with DMEM complete medium. The cell density of the two was adjusted to 1×10⁶ cells/mL, respectively. Cells were inoculated at 100 μL cells/well in a 96 well V-bottom plate (Corning, Cat#: 3894), followed by the addition of test antibodies at 100 μL/well, which is gradient diluted at 3 folds of the concentration with 2 folds of the final concentration. Cells were incubated at 4° C. for 1 hour in the dark. Afterwards, the cells were washed twice with 100 μL/well of pre-cooled PBS, centrifuged at 500 g for 5 min at 4° C., and followed by discarding the supernatant. 100 μL/well of fluorescent secondary antibody (Alexa Fluor 488-conjugated AffiniPure Goat Anti-Human IgG, Fcγ Fragment Specific, Jackson, Cat#: 109-545-06, 1:500 dilution) was added and incubated for 30 min at 4° C. in the dark. […] Finally, the cells were resuspended with 200 μL/well of pre-cooled PBS, and the fluorescence luminescence signal values were read by BD FACS CANTOII. […]

[4] = target: T2, human BCMA on cells (HEK293T/huBCMA; …); assay: FACS on NCI-H929 cells

T1 sequence (A0A2K5UD97 entry or part of it): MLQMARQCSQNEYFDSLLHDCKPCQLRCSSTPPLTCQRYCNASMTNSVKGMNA

B1: BCMA x CD3 bispecific antibody PR003178 (bispecific antibody, human IgG1, lambda, L234A L235A)
heavy 1: not shown
light: QAVVTQEPSLTVSPGGTVTLTCRSSTGAVTTSNYANWVQQKPGQAPRGLIGGTNKRAPWTPARFSGSLLGDKAALTLLGAQPEDEAEYFCALWYSNLWVFGGGTKLTVLGQPKAAPSVTLFPPSSEELQANKATLVCLISDFYPGAVTVAWKADSSPVKAGVETTTPSKQSNNKYAASSYLSLTPEQWKSHRSYSCQVTHEGSTVEKTVAPTECS
heavy 2: EVQLVETGGGLIQPGGSLRLSCAASGFTVSDNYMTWVRQAPGKGLEWVSVIFSGGNTYYADSVKGRFTISRDNAKNTLYLQMNSLRAEDTALYYCARRNYDDTRGTDVFDIWGQGTMVTVSSGGGGSGGGGSGGGGSEVQLVETGGGLIQPGGSLRLSCAASGFTVSDNYMTWVRQAPGKGLEWVSVIFSGGNTYYADSVKGRFTISRDNAKNTLYLQMNSLRAEDTALYYCARRNYDDTRGTDVFDIWGQGTMVTVSSASEPKSSDKTHTCPPCPAPEAAGGPSVFLFPPKPKDTLMISRTPEVTCVVVDVSHEDPEVKFNWYVDGVEVHNAKTKPREEQYNSTYRVVSVLTVLHQDWLNGKEYKCKVSNKALPAPIEKTISKAKGQPREPQVCTLPPSREEMTKNQVSLSCAVKGFYPSDIAVEWESNGQPENNYKTTPPVLDSDGSFFLVSKLTVDKSRWQQGNVFSCSVMHEALHNHYTQKSLSLSPGK
notes: Three chains: HC1 (anti-CD3 heavy, knob, LALA), LC (anti-CD3 lambda light), HC2 (two tandem anti-BCMA VH of PR001046 joined by (G4S)3, then Fc hole, LALA); also called PRO03178
B1 showed a Kd [1] of 147 pM, a koff [1] of 0.000285 s⁻¹ and a kon [1] of 1.94e+06 M⁻¹ s⁻¹. The EC50 [2] was 1100 pM, the EC50 [3] was 188 pM and the “fold lower EC50 than positive control 2” value [4] was about 8 fold.
